Conditions: Bacillus amyloliquefaciens, pH 8, 25 °C, Urea, Fluorescence, Tris-HCl 30 mM, whole UniProt chain shown

B1: Barstar wild type, P11540 (protein)
chain: MKKAVINGEQIRSISDLHQTLKKELALPEYYGENLDALWDCLTGWVEYPLVLEWRQFEQSKQLTENGAESVLQVFREAKAEGCDITIILS
denaturant m value (KCl 0.5 M): 1.12 kcal/mol/M | unfolding free energy (KCl 0.5 M): 5.8 kcal/mol | denaturant m value (KCl 1.0 M): 1.19 kcal/mol/M | unfolding free energy (KCl 1.0 M): 6.9 kcal/mol | denaturant m value: 1.16 kcal/mol/M | unfolding free energy: 4.8 kcal/mol
